Experimental data published in paper PMC8346283.

Molecular target: AmHv1, Hv1-type proton channel of Acropora millepora, tagged with fluorescent proteins (Acropora millepora)
Assay: FRET or BRET; spectral FRET (sensitized emission of the acceptor) in HEK293 cells co-expressing mCerulean-AmHv1 (donor) and mCitrine-AmHv1 (acceptor); apparent FRET efficiency against Id/Ia from 134 cells, fitted to a model of random assembly into a dimer

Question: With “AmHv1, Hv1-type proton channel of Acropora millepora, tagged with fluorescent proteins (natural protein)” as the substance, how does the stoichiometry N read?
Answer: 2
